Results: paper PMC5305259 (Molecular Biology of the Cell, 2017)

Biological target: T1, N-terminally tagged GFP cldn2 with the Linker domain between GFP and cldn2 (mouse, UniProt O88552 1-230)
T1 sequence: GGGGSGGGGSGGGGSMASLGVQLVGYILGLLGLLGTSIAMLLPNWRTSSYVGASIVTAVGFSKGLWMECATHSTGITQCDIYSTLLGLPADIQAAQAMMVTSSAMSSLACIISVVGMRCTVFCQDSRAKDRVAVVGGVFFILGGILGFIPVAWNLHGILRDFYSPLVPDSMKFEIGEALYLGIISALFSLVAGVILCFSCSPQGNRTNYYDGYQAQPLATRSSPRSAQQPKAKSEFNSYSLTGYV
Test: pull-down

B1: myc-tagged N-terminal half of ZO-1 containing the PDZ domains (ZNA; amino acids 1-887) (domain or fragment, UniProt Q07157 1-887, looked up)
chain: MSARAAAAKSTAMEETAIWEQHTVTLHRAPGFGFGIAISGGRDNPHFQSGETSIVISDVLKGGPAEGQLQENDRVAMVNGVSMDNVEHAFAVQQLRKSGKNAKITIRRKKKVQIPVSRPDPEPVSDNEEDSYDEEIHDPRSGRSGVVNRRSEKIWPRDRSASRERSLSPRSDRRSVASSQPAKPTKVTLVKSRKNEEYGLRLASHIFVKEISQDSLAARDGNIQEGDVVLKINGTVTENMSLTDAKTLIERSKGKLKMVVQRDERATLLNVPDLSDSIHSANASERDDISEIQSLASDHSGRSHDRPPRRSRSRSPDQRSEPSDHSRHSPQQPSNGSLRSRDEERISKPGAVSTPVKHADDHTPKTVEEVTVERNEKQTPSLPEPKPVYAQVGQPDVDLPVSPSDGVLPNSTHEDGILRPSMKLVKFRKGDSVGLRLAGGNDVGIFVAGVLEDSPAAKEGLEEGDQILRVNNVDFTNIIREEAVLFLLDLPKGEEVTILAQKKKDVYRRIVESDVGDSFYIRTHFEYEKESPYGLSFNKGEVFRVVDTLYNGKLGSWLAIRIGKNHKEVERGIIPNKNRAEQLASVQYTLPKTAGGDRADFWRFRGLRSSKRNLRKSREDLSAQPVQTKFPAYERVVLREAGFLRPVTIFGPIADVAREKLAREEPDIYQIAKSEPRDAGTDQRSSGIIRLHTIKQIIDQDKHALLDVTPNAVDRLNYAQWYPIVVFLNPDSKQGVKTMRMRLCPESRKSARKLYERSHKLRKNNHHLFTTTINLNSMNDGWYGALKEAIQQQQNQLVWVSEGKADGATSDDLDLHDDRLSYLSAPGSEYSMYSTDSRHTSDYEDTDTEGGAYTDQELDETLNDEVGTPPESAITRSSEPVREDSSG
- fold binding against GFP cldn2 without the linker: ~3 fold
